Reference: patent US20240132624A1

Tests used:
human FcRn/b2M (human) [1] = biological target: human FcRn/b2M (human) (UniProt P61769); assay: SPR pH 7.4
human FcRn/b2M (human) [2] = biological target: human FcRn/b2M (human) (UniProt P61769); assay: SPR pH 6.0
human FcRn/b2M (human) [3] = biological target: human FcRn/b2M (human) (UniProt P61769); assay: SPR; pH 7.4 vs pH 6.0

Kd (human FcRn/b2M (human) [1]): 1000 nM
Kd (human FcRn/b2M (human) [2]): 19 nM
KD ratio pH 7.4/6.0 (human FcRn/b2M (human) [3]): 54
B1: T0263018B11 bivalent (VHH, part only; not given: linker, not shown: small tags and cut ends)
chain, part: EVQLVESGGGVVQPGGSLRLSCAASGFTFSSYAMYWVRQAPGKGLEWVSAISSGGGSTDYADSVKGRFTISRDNSKNTLYLQMNSLRPEDTALYYCAADTLYTSLTWYSYWGQGTLVTVSSEVQLVESGGGVVQPGGSLRLSCAASGFTFSSYAMYWVRQAPGKGLEWVSAISSGGGSTDYADSVKGRFTISRDNSKNTLYLQMNSLRPEDTALYYCAADTLYTSLTWYSYWGQGTLVTVSS
